These results are taken from the nanobody polyreactivity screen of Harvey et al. (2022).

The data set is described as follows: yeast display, Sf9 membrane polyspecificity reagent, FACS + sequencing; frameworks hold sequencing errors. A digest of the protocol:
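Nanobodies came from a synthetic yeast display library in Saccharomyces cerevisiae BJ5465, induced with galactose for 36–48 hours and stained for 1 hour at 4 °C with 10% biotinylated, detergent-solubilized Sf9 membrane reagent. Cells were enriched on streptavidin microbeads and then FACS-sorted, with low and high (top ~1%) gates set on anti-HA fluorescence for expression and streptavidin fluorescence for reagent binding. Each polyreactivity label reflects the gate a clone came from. Genes were amplified by colony PCR, sequenced by MiSeq 2 × 250 and filtered by CDR length.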
With “QVQLVESGGGLVQAGGSLRLRCAASGITFPNYAMGWYRQAPGKERELVAAISSGGSTTYADSVKGRFTISRDNAKNTVYLQMNSLKPEDTAVYYCNADISAHYVIGVPTGYYWGQGTQVTVSS”, the “polyreactivity (PSR sort gate)” value was “low polyreactivity”.

With “QVQLVESGGGLVQAGGSLRLRCAASGLIFARNAMGWYRHAPGKERELVAAISRRGGSTYYADSVKGRFTISRDNAKNTVYLQMNSLKPEDTAVYYCAADTPYWQSSKYDYWGQGTQVTVSS”, the “polyreactivity (PSR sort gate)” value is listed as “high polyreactivity”.

Consider “QVQLVESGGGLVQAGGSLRLRCAASGLIFYVYAMGWYRQAPGKERELVAAISYRGGSTYADSVKGRFTISRDNAKNTVYLQMNSLKPEDTAVYYCAAQRWYVYGLKYHYGYWGQGTQVTVSS”, for which the “polyreactivity (PSR sort gate)” value is given as “high polyreactivity”.

As for “QVQLVESGGGLVQAGGSLRLRCAASGNTFAYYAMGWYRQAPGKERELVASITGSGTSTYYADSVKGRFTISRDNEKNTVYLQMNSLKPEDTAVYYCAKRYYYKWFGYWGQGTQVTVSS”, the “polyreactivity (PSR sort gate)” value is listed as “high polyreactivity”.

For “QVQLVESGGGLVQAGGSLRLRCAASGNTFRVYPMGWYRQAPGKESELVAAITWSGSRTYYADSVKGRFTISRDNAKNTVYFQINSLKPEDTAVYYCAARFVRAAYNYWGLGTQVTVSS”, the “polyreactivity (PSR sort gate)” value is listed as “high polyreactivity”.

Take “QVQLVESGGGLVQAGGSLRLRCAASGRIFNGYGMGWYRQAPGKERELVAAITWSGGGTYYADTVKGRFTISRDNAKNTVYLQRNSLKPEDTAVYYCAAYSSSYPDYDSWGQGTQVTVSS”: the “polyreactivity (PSR sort gate)” value is “low polyreactivity”.

For “QVQLVESGGGLVQAGGSLRLRCAASGRIFRPYTMGWYRQAPGKERELVAGITSSGGGTYYADSVKGRFTISRDNAKNTVYLHMNSLKPEDSAVYYCNRRGWSRTHQYDYWGQGTQVTVSS”, the “polyreactivity (PSR sort gate)” value was “high polyreactivity”.

Regarding “QVQLVESGGGLVQAGGSLRLRCAASGRNFGDNRMGWYRQAPGKERELVTYAYSVKGRFTISRDNAKNTVYLQMNSLKPEDTSVYYCNTDPQRFSGLDENYWGQGTQVTVSS”, the “polyreactivity (PSR sort gate)” value was “low polyreactivity”.

As to “QVQLVESGGGLVQAGGSLRLRCAASGRTFARYAMGWYRQAPGKERELVAAISWSGGSTYYADSVKARFTISRDNAKNTVYLQMNSLKPVDTAVYYCAARRPTSPRRYESWGQGTQVTVSS”, the “polyreactivity (PSR sort gate)” value is given as “high polyreactivity”.

As to “QVQLVESGGGLVQAGGSLRLRCAASGRTFELYAMGWYRQAPGKERALVAAITASGGTTYYADSVKGRFTISRDNAKNTVYLQMNSLKPEDTAVYYCAAEYSYYPFTDYDYWGQGTQVSVSS”, the “polyreactivity (PSR sort gate)” value is “high polyreactivity”.

In the case of “QVQLVESGGGLVQAGGSLRLRCAASGRTFGQNAMGLYRQAPGKEREFVAAISSSGGSTYYADSVKGRFTISRDNAKNTVYLQMNSLKPEDTAVYYCNARQYYYRSGAYASRYLYNYWGQGTQVTVSS”, the “polyreactivity (PSR sort gate)” value is “high polyreactivity”.

As for “QVQLVESGGGLVQAGGSLRLRCAASGRTFQYNAMGWYRQAPGKESELVAANTSNGGSTYYADSVKGRFTISRDNAKNTVYLQMNSLNPEDTAVYYCAKAYRYVDRGYRLLRYGFWGQGTQVTVSS”, the “polyreactivity (PSR sort gate)” value is given as “high polyreactivity”.

Regarding “QVQLVESGGGLVQAGGSLRLRCAASGRTFRYYAMGWYRQAPGKEREVVAAITRSGGSTYYADSVKGRFTISRDNAKNTVYLQMNSLKPEDTAVYYCAASRFTSYGIDYDYCGQGTQVTVSS”, the “polyreactivity (PSR sort gate)” value is on record as “high polyreactivity”.

Consider “QVQLVESGGGLVQAGGSLRLRCAASGRTFYRYAMGWYRQAPGKERELVASINRGGSTNYADSVKGRFTISRDNAKNTVYLQMNSLKPEDTAVYYCACYCYCYWGQGTQVTVSS”, for which the “polyreactivity (PSR sort gate)” value is “low polyreactivity”.

Turning to “QVQLVESGGGLVQAGGSLRLRCAASGSIFEEYAMGWSRPAPGKERELVAAITSRGGSTYYADSVKGRFTISRDNAKNNVYLQMNSLKPEDTAVYYCAAGVASLTTGSYDYWGQGTQVTVSS”, the “polyreactivity (PSR sort gate)” value is on record as “low polyreactivity”.

In the case of “QVQLVESGGGLVQAGGSLRLRCAASGSIFGPNALGWYRQAAGKERELVAAISSGGSTNYADSVKGRFTISRDNAKNTVYLQMNSLKPEDTAVYYCAKDNYLDPPYFYRFAGYDYRGQGTQVTVSS”, the “polyreactivity (PSR sort gate)” value was “low polyreactivity”.

On to “QVQLVESGGGLVQAGGSLRLRCAASGSIFQPYAMGWYRQAPGKERELVAAITNGGSTYYADSVKGRFTISRDNATNTVYLQMNSLKPEDTAVYYCAADVQSSHEYDYWGQGTQVTVSS”, for which the “polyreactivity (PSR sort gate)” value is “low polyreactivity”.

On to “QVQLVESGGGLVQAGGSLRLRCAASGSIFQSNAMGWYRPAPGKESELVAAISSSGVRTYYADSVKGRFTISRDNAKNTVYLQMNSLKPEDTAVYYCATGWYYAGGPTYEYYYWGQGTQVTVSS”, for which the “polyreactivity (PSR sort gate)” value is “low polyreactivity”.

As for “QVQLVESGGGLVQAGGSLRLRCAASGSIFSSNAMGWYRQAPGKERELVAAITSGGSTYYADSVKGRFTISRDNAKHTVYLQMNSLKPEDTAVYYCAADDWGDGVYKLDYWGQGTQVTVSS”, the “polyreactivity (PSR sort gate)” value was “low polyreactivity”.

Turning to “QVQLVESGGGLVQAGGSLRLRCAASGSIFTSYALGWYRQAPGKERELVAAINGSGGSTFYADSVKSRFTISRDNAKYTFYLQMNSLKPEDTAVYYCNTGGPRGTTYDFWGLGTQVTVSS”, the “polyreactivity (PSR sort gate)” value is listed as “low polyreactivity”.

Take “QVQLVESGGGLVQAGGSLRLRCAASGSIFWRNAMGWYRQAPGKERELVAPISGNGGTTYYADSVKGRFTISRENAKNTVFLQMNSLKPEHTAVYYCPKVGKTYRTYEYWGQGTEVTVSS”: the “polyreactivity (PSR sort gate)” value is reported as “high polyreactivity”.

For “QVQLVESGGGLVQAGGSLRLRCAASGSIFYFYAMGWYRQAPGQEREFVAAITRSGGRTYYADSVKGRFTISRDNAKNTVYLQMNSLKPEDTAVYYCDAVPYDKRKGDYWGQGTQVTVSS”, the “polyreactivity (PSR sort gate)” value is listed as “high polyreactivity”.

“QVQLVESGGGLVQAGGSLRLRCAASGSIITRYAMGWYRQAPGKERDLVAAITASGGRTYYADSVKGRFTISRDNAKNTVYFQMNSLKPEDTAVYYCNTFWRYTSQLPYDYWGQGTQVNVSS”: the “polyreactivity (PSR sort gate)” value was “high polyreactivity”.

As to “QVQLVESGGGLVQAGGSLRLRCAASGSNFVSYAMGSYRQAPGKERELVATITTSTGSTYADSVKGRFTISRDNAKNTVYLLMYSLKPEDTAVYYCAARYLPWLKYDFDSWGQGTQVTVSS”, the “polyreactivity (PSR sort gate)” value was “low polyreactivity”.

As to “QVQLVESGGGLVQAGGSLRLRCAASGSTFDGNAMGWYRQAPGKETELVAAITSGGSTNYADSVKGRFTISRDNANNTVYFQMYSLKPEDTAVYYCAAYTVSFSILYDYWGQGTQVTLSS”, the “polyreactivity (PSR sort gate)” value was “low polyreactivity”.

Regarding “QVQLVESGGGLVQAGGSLRLRCAASGSTFGGYAMGWYRQAPGKERELVAAIANGDRTNYADSVKGRFIISRDNAKNTVYLQMNSLKPEDTAVYYCNKDGPSYSSYDNWGQGTQVTVSS”, the “polyreactivity (PSR sort gate)” value is “low polyreactivity”.

For the sequence “QVQLVESGGGLVQAGGSLRLRCAASGSTFGYYSMGWYRQAPGKEMELVAAISKSGGRTYYADSVKGRFTISRDTAKNTVYVQMNSLKPEDTAVYYCNKANGGDEVDYWGQGTQVTVSS”, the “polyreactivity (PSR sort gate)” value is listed as “high polyreactivity”.

On to “QVQLVESGGGLVQAGGSLRLRCAASGSTFTKNAMGWYRQAPGKERELVAAISFTTGRTYYADSVKGRFTISRDNAKNTVYLQMNSLKPEDTAVYYCNKVYARSEQRGPVAGNYWGQGTQVTVSS”, for which the “polyreactivity (PSR sort gate)” value is given as “high polyreactivity”.

For the sequence “QVQLVESGGGLVQAGGSLRLRCAASGSTILYYAMGWYRQAPGKERELVADIDWSGDSTYYADSVKRRFRISRDNAKNTVYFQMNSLKPEDTAVYYCAATQYYPVPYDYWGQGTQVTVSS”, the “polyreactivity (PSR sort gate)” value is “low polyreactivity”.

Turning to “QVQLVESGGGLVQAGGSLRLRCAASGSTSAYYAMGWYRQAPGKERELVAAISWSGGRTYSADSVKGRFTISRDNAKNTVYLQMNSLKPEDTAVYYCAARFWFTKGYDYWGQGTQVTVSS”, the “polyreactivity (PSR sort gate)” value is recorded as “high polyreactivity”.
